Experimental data reported in patent publication US20110250130A1 (AbbVie / Abbott, published 2011).

Experiments:
[1] = biological target: T1, Recombinant Human TNF-α/TNFSF1A (human, UniProt P01375 77-233); assay: cell-based or functional assay
[2] = biological target: T1, Recombinant Human TNF-α/TNFSF1A; assay: SPR (Biacore), antibody captured, TNF-α in solution
Procedure: The BIACORE assay (Biacore, Inc. Piscataway, N.J.) determines the affinity of antibodies with kinetic measurements of on-rate and off-rate constants. Binding of antibodies to a target antigen (for example, a purified recombinant target antigen) is determined by surface plasmon resonance-based measurements with a Biacore® 1000 or 3000 instrument (Biacore® AB, Uppsala, Sweden) using running HBS-EP (10 mM HEPES [pH 7.4], 150 mM NaCl, 3 mM EDTA, and 0.005% surfactant P20) at 25° C. All chemicals are obtained from Biacore® AB (Uppsala, Sweden) or otherwise from a different source as described in the text. For example, approximately 5000 RU of goat anti-mouse IgG, (Fcγ), fragment specific polyclonal antibody (Pierce Biotechnology Inc, Rockford, Ill., US) diluted in 10 mM sodium acetate (pH 4.5) is directly immobilized across a CM5 research grade biosensor chip using a standard amine coupling kit according to manufacturer's instructions and procedures at 25 μg/ml. Unreacted moieties on the biosensor surface are blocked with ethanolamine. Modified carboxymethyl dextran surface in flowcell 2 and 4 is used as a reaction surface. Unmodified carboxymethyl dextran without goat anti-mouse IgG in flow cell 1 and 3 is used as the reference surface. For kinetic analysis, rate equations derived from the 1:1 Langmuir binding model are fitted simultaneously to association and dissociation phases of all eight injections (using global fit analysis) with the use of Biaevaluation 4.0.1 software. Purified antibodies are diluted in HEPES-buffered saline for capture across goat anti-mouse IgG specific reaction surfaces. Antibodies to be captured as a ligand (25 μg/ml) are injected over reaction matrices at a flow rate of 5 μl/minute. The association and dissociation rate constants, kₒₙ (M⁻¹s⁻¹) and koff (s⁻¹), are determined under a continuous flow rate of 25 μl/minute. Rate constants are derived by making kinetic binding measurements at different antigen concentrations ranging from 10-200 nM. The equilibrium dissociation constant (M) of the reaction between antibodies and the target antigen is then calculated from the kinetic rate constants by the following formula: KD=koff/kₒₙ. Binding is recorded as a function of time and kinetic rate constants are calculated. In this assay, on-rates as fast as 10⁶ M⁻¹s⁻¹ and off-rates as slow as 10⁻⁶ s⁻¹ can be measured.

T1 sequence (P01375 77-233 limits assumed): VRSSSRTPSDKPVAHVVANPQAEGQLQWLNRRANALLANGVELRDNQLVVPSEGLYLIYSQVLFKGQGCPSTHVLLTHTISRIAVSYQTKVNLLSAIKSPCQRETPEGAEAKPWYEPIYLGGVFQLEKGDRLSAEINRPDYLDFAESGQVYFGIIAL

Row | TNF-α neutralization assay IC50 (nM), L929 cells [1] [nM] | Kd [2] [pM] | koff [2] [s⁻¹] | kon [2] [M⁻¹ s⁻¹] | Binder
1 | 0.213 | 174 | 0.000316 | 1.82e+06 | AB248 (antibody, V domains shown, also called hMAK195VH.1b / hMAK195VL.1) VH: EVQLQESGPGLVKPSETLSLTCTVSGFSLSDYGVNWIRQPPGKGLEWIGMIWGDGSTDYDSTLKSRVTISKDTSKNQFSLKLSSVTAADTAVYYCAREWHHGPVAYWGQGTLVTVSS VL: DIQMTQSPSSLSASVGDRVTITCKASQAVSSAVAWYQQKPGKAPKLLIYWASTRHTGVPSRFSGSGSGTDFTLTISSLQPEDFATYYCQQHYSTPFTFGQGTKLEIK
2 | 0.093 | 101 | 0.00023 | 2.27e+06 | AB260 (antibody, V domains shown, also called hMAK195VH.2b / hMAK195VL.1) VH: EVQLVESGGGLVQPGGSLRLSCAASGFTLSDYGVNWVRQAPGKGLEWVSMIWGDGSTDYDSTLKSRFTISKDNSKNTLYLQMNSLRAEDTAVYYCAREWHHGPVAYWGQGTLVTVSS VL: DIQMTQSPSSLSASVGDRVTITCKASQAVSSAVAWYQQKPGKAPKLLIYWASTRHTGVPSRFSGSGSGTDFTLTISSLQPEDFATYYCQQHYSTPFTFGQGTKLEIK
3 | 0.301 | 179 | 0.000356 | 2e+06 | AB250 (antibody, V domains shown, also called hMAK195VH.1b / hMAK195VL.2) VH: EVQLQESGPGLVKPSETLSLTCTVSGFSLSDYGVNWIRQPPGKGLEWIGMIWGDGSTDYDSTLKSRVTISKDTSKNQFSLKLSSVTAADTAVYYCAREWHHGPVAYWGQGTLVTVSS VL: EIVMTQSPATLSLSPGERATLSCKASQAVSSAVAWYQQKPGQAPRLLIYWASTRHTGIPARFSGSGSGTDFTLTISSLQPEDFAVYYCQQHYSTPFTFGQGTKLEIK
4 | 50.7 | 1620 | 0.0027 | 1.72e+06 | AB243 (antibody, V domains shown, also called hMAK195VH.1 / hMAK195VL.2a) VH: EVQLQESGPGLVKPSETLSLTCTVSGGSISDYGVNWIRQPPGKGLEWIGMIWGDGSTDYDSTLKSRVTISVDTSKNQFSLKLSSVTAADTAVYYCAREWHHGPVAYWGQGTLVTVSS VL: EIVMTQSPATLSLSPGERATLSCKASQAVSSAVAWYQQKPGQSPRLLIYWASTRHTGVPARFSGSGSGTDFTLTISSLQPEDFAVYYCQQHYSTPFTFGQGTKLEIK
5 | 0.155 | 89.1 | 0.000335 | 3.8e+06 | AB244 (antibody, V domains shown, also called hMAK195VH.1a / hMAK195VL.1) VH: EVQLQESGPGLVKPSETLSLTCTVSGFSLSDYGVNWVRQPPGKGLEWLGMIWGDGSTDYDSTLKSRLTISKDNSKSQISLKLSSVTAADTAVYYCAREWHHGPVAYWGQGTLVTVSS VL: DIQMTQSPSSLSASVGDRVTITCKASQAVSSAVAWYQQKPGKAPKLLIYWASTRHTGVPSRFSGSGSGTDFTLTISSLQPEDFATYYCQQHYSTPFTFGQGTKLEIK
6 | 0.35 | 250 | 0.000425 | 1.71e+06 | AB251 (antibody, V domains shown, also called hMAK195VH.1b / hMAK195VL.2a) VH: EVQLQESGPGLVKPSETLSLTCTVSGFSLSDYGVNWIRQPPGKGLEWIGMIWGDGSTDYDSTLKSRVTISKDTSKNQFSLKLSSVTAADTAVYYCAREWHHGPVAYWGQGTLVTVSS VL: EIVMTQSPATLSLSPGERATLSCKASQAVSSAVAWYQQKPGQSPRLLIYWASTRHTGVPARFSGSGSGTDFTLTISSLQPEDFAVYYCQQHYSTPFTFGQGTKLEIK
7 | 0.186 | 99.6 | 0.00026 | 2.62e+06 | AB247 (antibody, V domains shown, also called hMAK195VH.1a / hMAK195VL.2a) VH: EVQLQESGPGLVKPSETLSLTCTVSGFSLSDYGVNWVRQPPGKGLEWLGMIWGDGSTDYDSTLKSRLTISKDNSKSQISLKLSSVTAADTAVYYCAREWHHGPVAYWGQGTLVTVSS VL: EIVMTQSPATLSLSPGERATLSCKASQAVSSAVAWYQQKPGQSPRLLIYWASTRHTGVPARFSGSGSGTDFTLTISSLQPEDFAVYYCQQHYSTPFTFGQGTKLEIK
8 | 5.33 | 573 | 0.0013 | 2.27e+06 | AB241 (antibody, V domains shown, also called hMAK195VH.1 / hMAK195VL.1a) VH: EVQLQESGPGLVKPSETLSLTCTVSGGSISDYGVNWIRQPPGKGLEWIGMIWGDGSTDYDSTLKSRVTISVDTSKNQFSLKLSSVTAADTAVYYCAREWHHGPVAYWGQGTLVTVSS VL: DIQMTQSPSSLSASVGDRVTITCKASQAVSSAVAWYQQKPGKSPKLLIYWASTRHTGVPSRFSGSGSGTDFTLTISSLQPEDFATYYCQQHYSTPFTFGQGTKLEIK
9 | 0.245 | 156 | 0.000315 | 2.04e+06 | AB249 (antibody, V domains shown, also called A3249; hMAK195VH.1b / hMAK195VL.1a) VH: EVQLQESGPGLVKPSETLSLTCTVSGFSLSDYGVNWIRQPPGKGLEWIGMIWGDGSTDYDSTLKSRVTISKDTSKNQFSLKLSSVTAADTAVYYCAREWHHGPVAYWGQGTLVTVSS VL: DIQMTQSPSSLSASVGDRVTITCKASQAVSSAVAWYQQKPGKSPKLLIYWASTRHTGVPSRFSGSGSGTDFTLTISSLQPEDFATYYCQQHYSTPFTFGQGTKLEIK
10 | 0.072 | 99.4 | 0.00033 | 3.32e+06 | AB245 (antibody, V domains shown, also called hMAK195VH.1a / hMAK195VL.1a) VH: EVQLQESGPGLVKPSETLSLTCTVSGFSLSDYGVNWVRQPPGKGLEWLGMIWGDGSTDYDSTLKSRLTISKDNSKSQISLKLSSVTAADTAVYYCAREWHHGPVAYWGQGTLVTVSS VL: DIQMTQSPSSLSASVGDRVTITCKASQAVSSAVAWYQQKPGKSPKLLIYWASTRHTGVPSRFSGSGSGTDFTLTISSLQPEDFATYYCQQHYSTPFTFGQGTKLEIK
11 | 25.1 | 796 | 0.00142 | 1.79e+06 | AB242 (antibody, V domains shown, also called hMAK195VH.1 / hMAK195VL.2) VH: EVQLQESGPGLVKPSETLSLTCTVSGGSISDYGVNWIRQPPGKGLEWIGMIWGDGSTDYDSTLKSRVTISVDTSKNQFSLKLSSVTAADTAVYYCAREWHHGPVAYWGQGTLVTVSS VL: EIVMTQSPATLSLSPGERATLSCKASQAVSSAVAWYQQKPGQAPRLLIYWASTRHTGIPARFSGSGSGTDFTLTISSLQPEDFAVYYCQQHYSTPFTFGQGTKLEIK
12 | 0.099 | 45.8 | 0.000119 | 2.61e+06 | AB246 (antibody, V domains shown, also called hMAK195VH.1a / hMAK195VL.2) VH: EVQLQESGPGLVKPSETLSLTCTVSGFSLSDYGVNWVRQPPGKGLEWLGMIWGDGSTDYDSTLKSRLTISKDNSKSQISLKLSSVTAADTAVYYCAREWHHGPVAYWGQGTLVTVSS VL: EIVMTQSPATLSLSPGERATLSCKASQAVSSAVAWYQQKPGQAPRLLIYWASTRHTGIPARFSGSGSGTDFTLTISSLQPEDFAVYYCQQHYSTPFTFGQGTKLEIK
13 | 0.279 | 73.3 | 0.000221 | 3.02e+06 | AB253 (antibody, V domains shown, also called hMAK195VH.2 / hMAK195VL.1a) VH: EVQLVESGGGLVQPGGSLRLSCAASGFTFSDYGVNWVRQAPGKGLEWVSMIWGDGSTDYDSTLKSRFTISRDNSKNTLYLQMNSLRAEDTAVYYCAREWHHGPVAYWGQGTLVTVSS VL: DIQMTQSPSSLSASVGDRVTITCKASQAVSSAVAWYQQKPGKSPKLLIYWASTRHTGVPSRFSGSGSGTDFTLTISSLQPEDFATYYCQQHYSTPFTFGQGTKLEIK
14 | 14.2 | 1400 | 0.00228 | 1.64e+06 | AB240 (antibody, V domains shown, also called hMAK195VH.1 / hMAK195VL.1) VH: EVQLQESGPGLVKPSETLSLTCTVSGGSISDYGVNWIRQPPGKGLEWIGMIWGDGSTDYDSTLKSRVTISVDTSKNQFSLKLSSVTAADTAVYYCAREWHHGPVAYWGQGTLVTVSS VL: DIQMTQSPSSLSASVGDRVTITCKASQAVSSAVAWYQQKPGKAPKLLIYWASTRHTGVPSRFSGSGSGTDFTLTISSLQPEDFATYYCQQHYSTPFTFGQGTKLEIK
15 | 0.222 | 86.6 | 0.000252 | 2.92e+06 | AB252 (antibody, V domains shown, also called hMAK195VH.2 / hMAK195VL.1) VH: EVQLVESGGGLVQPGGSLRLSCAASGFTFSDYGVNWVRQAPGKGLEWVSMIWGDGSTDYDSTLKSRFTISRDNSKNTLYLQMNSLRAEDTAVYYCAREWHHGPVAYWGQGTLVTVSS VL: DIQMTQSPSSLSASVGDRVTITCKASQAVSSAVAWYQQKPGKAPKLLIYWASTRHTGVPSRFSGSGSGTDFTLTISSLQPEDFATYYCQQHYSTPFTFGQGTKLEIK
